The target of this assay is IL-13 receptor (IL-4Rα/IL-13Rα1) on TF-1 cells (human) (UniProt P78552). Put plainly: cell-based or functional assay.

The text below walks through data of patent US20110009361A1.

Chain of IL-13 receptor (IL-4Rα/IL-13Rα1) on TF-1 cells (human) (P78552 22-427, chain 1 of 2): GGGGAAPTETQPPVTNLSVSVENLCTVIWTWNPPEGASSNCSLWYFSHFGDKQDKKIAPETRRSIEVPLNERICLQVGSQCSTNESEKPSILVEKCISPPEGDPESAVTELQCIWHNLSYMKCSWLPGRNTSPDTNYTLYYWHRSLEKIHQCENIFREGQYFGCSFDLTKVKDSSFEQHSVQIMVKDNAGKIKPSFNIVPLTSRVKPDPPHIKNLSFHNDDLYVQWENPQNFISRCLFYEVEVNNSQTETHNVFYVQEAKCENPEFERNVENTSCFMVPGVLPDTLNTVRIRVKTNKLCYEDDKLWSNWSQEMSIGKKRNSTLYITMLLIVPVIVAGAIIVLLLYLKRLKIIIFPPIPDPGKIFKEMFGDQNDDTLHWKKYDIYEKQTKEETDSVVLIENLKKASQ
Chain of IL-13 receptor (IL-4Rα/IL-13Rα1) on TF-1 cells (human) (P24394 26-825, chain 2 of 2, further chain): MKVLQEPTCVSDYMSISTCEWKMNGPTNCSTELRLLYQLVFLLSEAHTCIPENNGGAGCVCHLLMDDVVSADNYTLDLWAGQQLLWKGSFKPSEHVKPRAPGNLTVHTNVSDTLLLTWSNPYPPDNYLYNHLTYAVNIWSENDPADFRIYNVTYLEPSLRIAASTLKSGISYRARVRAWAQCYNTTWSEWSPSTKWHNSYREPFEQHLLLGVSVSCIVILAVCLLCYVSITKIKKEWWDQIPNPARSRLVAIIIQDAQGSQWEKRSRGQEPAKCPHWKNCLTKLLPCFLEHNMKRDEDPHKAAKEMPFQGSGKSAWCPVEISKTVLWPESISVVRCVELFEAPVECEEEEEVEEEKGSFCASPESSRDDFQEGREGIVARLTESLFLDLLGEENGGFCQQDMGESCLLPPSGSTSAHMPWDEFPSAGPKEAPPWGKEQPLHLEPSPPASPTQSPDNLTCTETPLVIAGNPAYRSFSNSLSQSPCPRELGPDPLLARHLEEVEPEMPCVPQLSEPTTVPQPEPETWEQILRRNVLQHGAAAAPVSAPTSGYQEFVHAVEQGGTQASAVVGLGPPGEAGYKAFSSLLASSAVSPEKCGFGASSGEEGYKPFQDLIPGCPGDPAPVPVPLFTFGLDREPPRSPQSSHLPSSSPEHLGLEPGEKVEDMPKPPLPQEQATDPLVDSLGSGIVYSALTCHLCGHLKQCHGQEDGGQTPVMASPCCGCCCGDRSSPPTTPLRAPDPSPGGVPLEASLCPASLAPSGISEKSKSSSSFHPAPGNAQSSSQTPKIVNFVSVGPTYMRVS

“IL-13Q111 H102A (from UniProt P35225 35-146) (ligand)” came in with a Concentration of IL-13 required for 50% TF-1 cell proliferation (ED50, ave) of 5.31 ng/mL.

The substance “IL-13Q111 K25A (from UniProt P35225 35-146) (ligand)” showed a Concentration of IL-13 required for 50% TF-1 cell proliferation (ED50, ave) of 2.64 ng/mL. As to “IL-13Q111 K97A (from UniProt P35225 35-146) (ligand)”, the Concentration of IL-13 required for 50% TF-1 cell proliferation (ED50, ave) came out at 1.33 ng/mL. “IL-13Q111 K104A (from UniProt P35225 35-146) (ligand)” had a Concentration of IL-13 required for 50% TF-1 cell proliferation (ED50, ave) of 46.2 ng/mL.

In turn, “IL-13Q111 K105A (from UniProt P35225 35-146) (ligand)” returned a Concentration of IL-13 required for 50% TF-1 cell proliferation (ED50, ave) of 22.6 ng/mL. “IL-13Q111 R108A (from UniProt P35225 35-146) (ligand)” showed a Concentration of IL-13 required for 50% TF-1 cell proliferation (ED50, ave) of 3.2 ng/mL. Under “human IL-13 with glutamine at position 111 (IL-13Q111) (from UniProt P35225 35-146) (ligand)” stands 1.26 ng/mL. In the case of “wild type human IL-13 with arginine in the 111 position (from UniProt P35225 35-146) (ligand)”, the Concentration of IL-13 required for 50% TF-1 cell proliferation (ED50, ave) worked out at 1.2 ng/mL.
